For eleven molecules, Classification results are on record in patent US20050282743A1, “Molecular interactions in cells” (Arbor Vita Corporation, priority 2001, published 2005).

T1: GST-APXL-1 PDZ domain 1 (Homo sapiens (Human)), Q13796
T1 chain: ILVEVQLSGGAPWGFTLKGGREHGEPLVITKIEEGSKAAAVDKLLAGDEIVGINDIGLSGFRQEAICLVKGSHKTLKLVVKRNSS

T2: GST-DLG1 PDZ domain 2 (Homo sapiens), Q12959
T2 chain: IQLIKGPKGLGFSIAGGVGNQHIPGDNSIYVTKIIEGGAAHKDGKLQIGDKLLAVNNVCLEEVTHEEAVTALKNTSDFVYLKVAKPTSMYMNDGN

T3: GST-INADL PDZ domain 8 (Homo sapiens (Human)), Q8NI35
T3 chain: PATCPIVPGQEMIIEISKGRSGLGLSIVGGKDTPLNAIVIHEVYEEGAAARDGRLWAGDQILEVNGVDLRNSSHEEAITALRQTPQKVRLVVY

T4: GST-KIAA0147 PDZ domain 3 (Homo sapiens (Human)), Q14160
T4 chain: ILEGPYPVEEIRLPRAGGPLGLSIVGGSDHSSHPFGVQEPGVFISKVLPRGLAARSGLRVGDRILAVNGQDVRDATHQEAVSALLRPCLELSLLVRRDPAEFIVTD

T5: GST-MINT1 PDZ domain 1 (Mus musculus (Mouse)), B2RUJ5
T5 chain: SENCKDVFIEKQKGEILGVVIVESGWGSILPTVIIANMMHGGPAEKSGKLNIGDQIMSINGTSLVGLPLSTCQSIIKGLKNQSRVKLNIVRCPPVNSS

T6: GST-MUPP1 PDZ domain 13 (Homo sapiens (Human)), O75970
T6 chain: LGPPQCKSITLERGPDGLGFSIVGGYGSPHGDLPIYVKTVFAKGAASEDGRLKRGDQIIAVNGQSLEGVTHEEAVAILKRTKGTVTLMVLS

T7: GST-MUPP1 PDZ domain 5 (Homo sapiens (Human)), O75970
T7 chain: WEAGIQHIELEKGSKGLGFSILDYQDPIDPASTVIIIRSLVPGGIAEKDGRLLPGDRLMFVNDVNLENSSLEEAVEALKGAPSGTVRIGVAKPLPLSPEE

T8: GST-NeDLG PDZ domain 2 (Rattus norvegicus (Rat)), Q62936
T8 chain: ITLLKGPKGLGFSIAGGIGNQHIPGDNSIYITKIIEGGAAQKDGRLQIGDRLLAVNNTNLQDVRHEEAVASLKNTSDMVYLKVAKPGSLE

T9: GST-NeDLG PDZ domains 1, 2, Q92796
T9 chain: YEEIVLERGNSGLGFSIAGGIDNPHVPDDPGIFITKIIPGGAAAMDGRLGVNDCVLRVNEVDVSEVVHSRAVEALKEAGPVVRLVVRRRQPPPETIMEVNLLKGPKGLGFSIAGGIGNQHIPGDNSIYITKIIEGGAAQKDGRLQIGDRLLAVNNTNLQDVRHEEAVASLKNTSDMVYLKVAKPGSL

T10: GST-PTPL1 PDZ domain 2 (Homo sapiens (Human)), Q12923
T10 chain: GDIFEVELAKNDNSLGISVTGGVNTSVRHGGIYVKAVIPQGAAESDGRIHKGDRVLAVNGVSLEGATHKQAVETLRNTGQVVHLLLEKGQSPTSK

T11: GST-Shank 1 PDZ domain 1 (Homo sapiens (Human)), Q9UPX8
T11 chain: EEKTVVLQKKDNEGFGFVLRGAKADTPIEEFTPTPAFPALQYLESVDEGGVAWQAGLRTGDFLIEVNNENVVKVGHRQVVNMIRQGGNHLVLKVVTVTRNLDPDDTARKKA

T12: GST-ZO-1 PDZ domain 1 (Rattus norvegicus (Rat)), A0A0G2
T12 chain: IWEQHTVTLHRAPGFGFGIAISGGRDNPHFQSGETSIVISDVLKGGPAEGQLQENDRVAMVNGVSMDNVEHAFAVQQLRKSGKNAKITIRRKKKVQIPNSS

T13: GST-ZO-2 PDZ domain 1 (Homo sapiens (Human)), Q9UDY2
T13 chain: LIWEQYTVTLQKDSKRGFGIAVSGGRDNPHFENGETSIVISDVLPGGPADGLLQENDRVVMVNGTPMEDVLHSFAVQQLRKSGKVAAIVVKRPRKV

T14: GST-ZO-3 PDZ domain 1
T14 chain: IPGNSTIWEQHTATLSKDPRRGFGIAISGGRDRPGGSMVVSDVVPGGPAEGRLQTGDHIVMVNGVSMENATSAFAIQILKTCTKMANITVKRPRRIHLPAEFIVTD

T15: GST-novel PDZ gene PDZ domain 1 (Homo sapiens (Human)), Q9H5P4
T15 chain: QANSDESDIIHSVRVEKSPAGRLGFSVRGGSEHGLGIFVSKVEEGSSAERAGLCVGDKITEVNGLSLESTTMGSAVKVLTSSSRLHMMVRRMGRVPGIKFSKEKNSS

B1: CSPG4 (chondroitin sulfae proteoglycan 4, melanoma-associated) (peptide)
peptide: ELLQFCRTPNPALKNGQYWV
modifications: not checked
B2: LPAP (peptide)
peptide: AWDDSARAAGGQGLHVTAL
modifications: not checked
B3: a-actinin 2 (peptide)
peptide: VPGALDYAAFSSALYGESDL
modifications: not checked
B4: NMDA Glutamate Receptor 2C (cysteine-free) (peptide)
peptide: TQGFPGPATWRRISSLESEV
modifications: not checked
B5: ephrin B2 (peptide)
peptide: ILNSIQVMRAQMNQIQSVEV
modifications: not checked
B6: alpha-2A Adrenergic receptor (peptide)
peptide: HDFRRAFKKILARGDRKRIV
modifications: not checked
B7: KIA 1481 (peptide)
peptide: PIPAGGCTFSGIFPTLTSPL
modifications: not checked
B8: AdenoE4 typ9 (peptide)
peptide: VGTLLLERVIFPSVKIATLV
modifications: not checked
B9: TAX (peptide)
peptide: QISPGGLEPPSEKHFRETEV
modifications: not checked
B10: catenin - delta 2 (peptide)
peptide: PYSELNYETSHYPASPDSWV
modifications: not checked
B11: MINT-1 (peptide)
peptide: KTMPAAMYRLLTAQEQPVYI
modifications: not checked
Note: key of the grades not given here.

Sequence of GST-PSD95 PDZ domains 1, 2, 3 (Homo sapiens), P78352 (P78352 62-395): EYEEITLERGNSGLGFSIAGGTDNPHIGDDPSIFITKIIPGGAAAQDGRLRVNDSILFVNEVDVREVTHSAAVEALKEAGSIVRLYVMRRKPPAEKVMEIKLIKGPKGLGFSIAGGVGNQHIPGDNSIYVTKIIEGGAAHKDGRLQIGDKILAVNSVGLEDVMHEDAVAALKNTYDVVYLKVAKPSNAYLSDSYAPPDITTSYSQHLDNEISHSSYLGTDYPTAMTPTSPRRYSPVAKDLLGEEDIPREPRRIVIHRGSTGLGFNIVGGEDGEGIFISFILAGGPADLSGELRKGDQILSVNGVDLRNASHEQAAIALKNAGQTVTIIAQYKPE
Sequence of GST-PAR3 PDZ domain 3 (Homo sapiens (Human)), Q8TEW0 (Q8TEW0 579-681): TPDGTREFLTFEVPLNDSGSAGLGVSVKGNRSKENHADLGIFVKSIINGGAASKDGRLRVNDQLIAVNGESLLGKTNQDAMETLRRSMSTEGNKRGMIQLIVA

The target in one experiment is T1, GST-APXL-1 PDZ domain 1 (Homo sapiens …). As to the kind of experiment: G' assay.
With B1, the Classification was 3 A450 class.
On the same count and under the same terms, the same measure for B2: 1 A450 class; for B3: 5 A450 class; for B4: 1 A450 class.
Take B5: the Classification was found to be 1 A450 class.
B6: the Classification worked out at 1 A450 class.
As for B7, the Classification is 5 A450 class.

For a further experiment, the target named is GST-Atrophin-1 Interacting Protein PDZ domain 1 (Rattus norvegicus (Rat)), O88382. As to the kind of experiment: G' assay.
Sequence of GST-Atrophin-1 Interacting Protein PDZ domain 1 (Rattus norvegicus (Rat)), O88382 (O88382 408-511): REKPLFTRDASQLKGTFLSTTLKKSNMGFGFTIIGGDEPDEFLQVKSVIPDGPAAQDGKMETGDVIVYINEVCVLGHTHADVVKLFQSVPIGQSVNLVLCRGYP
In turn, B8 had a Classification of 5 A450 class.
Turning to B1, the Classification was determined as 1 A450 class.
As to B4, the Classification was 5 A450 class.
B9 returned a Classification of 5 A450 class.

In the next experiment the target is GST-BAI-1 Associated Protein PDZ domain 3 (Homo sapiens (Human)), Q96QZ7. The experiment can be described thus: G' assay.
Sequence of GST-BAI-1 Associated Protein PDZ domain 3 (Homo sapiens (Human)), Q96QZ7 (Q96QZ7 other isoform, or with tags, fused parts or gaps): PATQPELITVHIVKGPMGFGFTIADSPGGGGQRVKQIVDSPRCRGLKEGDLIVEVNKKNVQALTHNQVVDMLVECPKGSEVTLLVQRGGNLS
The molecule B8 yielded a Classification of 5 A450 class.
Still for that read-out and setting: with B10 the figure was 1 A450 class.
Take B4: the Classification worked out at 1 A450 class.
Still for that read-out and setting: with B9 the figure was 1 A450 class.

The target in another experiment is GST-BAI-1 Associated Protein PDZ domain 4 (Homo sapiens (Human)), Q96QZ7. The experiment can be described thus: G' assay.
Sequence of GST-BAI-1 Associated Protein PDZ domain 4 (Homo sapiens (Human)), Q96QZ7 (Q96QZ7 other isoform, or with tags, fused parts or gaps): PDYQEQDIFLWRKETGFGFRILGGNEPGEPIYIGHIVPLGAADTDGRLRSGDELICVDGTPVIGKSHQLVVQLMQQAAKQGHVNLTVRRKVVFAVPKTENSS
The molecule B8 registered a Classification of 5 A450 class.
The molecule B4 gave a Classification of 3 A450 class.
With B9, the Classification is 2 A450 class.
B7 returned a Classification of 1 A450 class.

The next experiment addresses T2, GST-DLG1 PDZ domain 2 (Homo sapiens), …. The experiment can be described thus: G' assay.
The molecule B8 had a Classification of 5 A450 class.
Turning to B3, the Classification is 1 A450 class.
Take B10: the Classification came out at 2 A450 class.
The molecule B4 showed a Classification of 5 A450 class.
Consider B9, for which the Classification was determined as 5 A450 class.

The target in another experiment is GST-DLG1 PDZ domains 1, 2 (Homo sapiens), Q12959. As to the kind of experiment: G' assay.
The molecule B8 registered a Classification of 5 A450 class.
B3 showed a Classification of 1 A450 class.
Still for that read-out and setting: the same measure for B10: 3 A450 class.
Consider B4, for which the Classification came out at 5 A450 class.
B9 yielded a Classification of 5 A450 class.

In a further experiment the target is T3, GST-INADL PDZ domain 8 (Homo sapiens …). The experiment can be described thus: G' assay.
Molecule B8 registered a Classification of 2 A450 class.
As for B1, the Classification was 3 A450 class.
Molecule B10 gave a Classification of 2 A450 class.
Turning to B4, the Classification came out at 1 A450 class.
B11 gave a Classification of 1 A450 class.

Another experiment has as its target T4, GST-KIAA0147 PDZ domain 3 (Homo sapiens …). The experiment can be described thus: G' assay.
B3 registered a Classification of 3 A450 class.
The molecule B4 registered a Classification of 1 A450 class.
On to B9, for which the Classification came to 1 A450 class.

The next experiment deals with GST-KIAA1634 PDZ domain 4 (Homo sapiens (Human)), Q5TCQ9. The experiment can be described thus: G' assay.
Sequence of GST-KIAA1634 PDZ domain 4 (Homo sapiens (Human)), Q5TCQ9 (Q5TCQ9 844-945): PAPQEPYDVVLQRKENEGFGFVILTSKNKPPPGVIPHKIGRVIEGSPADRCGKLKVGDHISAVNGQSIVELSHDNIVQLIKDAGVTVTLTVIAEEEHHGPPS
As to B8, the Classification is 4 A450 class.
B4 displayed a Classification of 1 A450 class.
B9 gave a Classification of 2 A450 class.

The target in a further experiment is T5, GST-MINT1 PDZ domain 1 (Mus musculus …). As to the kind of experiment: G' assay.
The molecule B1 came in with a Classification of 2 A450 class.
In turn, B5 registered a Classification of 1 A450 class.
The molecule B11 displayed a Classification of 3 A450 class.
Same read-out and setting: the same measure for B6: 1 A450 class.

The target of another experiment is T6, GST-MUPP1 PDZ domain 13 (Homo sapiens …). The experiment can be described thus: G' assay.
As to B4, the Classification amounted to 5 A450 class.
On to B9, for which the Classification is 5 A450 class.
B6 returned a Classification of 1 A450 class.

Another experiment has as its target T7, GST-MUPP1 PDZ domain 5 (Homo sapiens …). The experiment can be described thus: G' assay.
The molecule B1 showed a Classification of 5 A450 class.
In turn, B4 returned a Classification of 1 A450 class.
B11 came in with a Classification of 2 A450 class.

The target of a further experiment is T8, GST-NeDLG PDZ domain 2 (Rattus …). As to the kind of experiment: G' assay.
B8 showed a Classification of 5 A450 class.
As for B4, the Classification was 5 A450 class.
Still for that read-out and setting: the same measure for B5: 2 A450 class.
Molecule B9 displayed a Classification of 5 A450 class.

For the next experiment, the target named is T9, GST-NeDLG PDZ domains 1, 2, Q92796. As to the kind of experiment: G' assay.
As for B8, the Classification amounted to 5 A450 class.
On the same count and under the same terms, the same measure for B4: 5 A450 class; for B9: 5 A450 class.

Another experiment addresses GST-PAR3 PDZ domain 3 (Homo sapiens (Human)), Q8TEW0. As to the kind of experiment: G' assay.
Take B1: the Classification is 3 A450 class.
For the molecule B3, the Classification stood at 1 A450 class.
Still for that read-out and setting: the same measure for B10: 1 A450 class; for B5: 2 A450 class; for B11: 5 A450 class.
B6 displayed a Classification of 2 A450 class.

Another experiment addresses GST-PSD95 PDZ domains 1, 2, 3 (Homo sapiens), P78352. As to the kind of experiment: G' assay.
Take B8: the Classification amounted to 5 A450 class.
For B10, the Classification amounted to 2 A450 class.
Molecule B4 showed a Classification of 5 A450 class.
As for B9, the Classification stood at 5 A450 class.

The next experiment has as its target T10, GST-PTPL1 PDZ domain 2 (Homo sapiens …). The experiment can be described thus: G' assay.
B8 registered a Classification of 3 A450 class.
On the same count and under the same terms, with B2 the figure was 1 A450 class.
The molecule B3 had a Classification of 1 A450 class.
Same read-out and setting: with B10 the figure was 5 A450 class; with B4, 5 A450 class.
In the case of B5, the Classification is 2 A450 class.
Still for that read-out and setting: with B9 the figure was 2 A450 class.
B6 yielded a Classification of 2 A450 class.

The next experiment addresses T11, GST-Shank 1 PDZ domain 1 (Homo sapiens …). The experiment can be described thus: G' assay.
As for B2, the Classification came out at 3 A450 class.
On to B3, for which the Classification amounted to 1 A450 class.
B7 showed a Classification of 5 A450 class.

A further experiment has as its target T12, GST-ZO-1 PDZ domain 1 (Rattus …). As to the kind of experiment: G' assay.
With B8, the Classification amounted to 2 A450 class.
As for B1, the Classification was 5 A450 class.
Regarding B5, the Classification was 3 A450 class.
As for B11, the Classification was 1 A450 class.

The next experiment addresses T13, GST-ZO-2 PDZ domain 1 (Homo sapiens …). As to the kind of experiment: G' assay.
The molecule B8 displayed a Classification of 3 A450 class.
As for B1, the Classification was 5 A450 class.
On the same count and under the same terms, with B5 the figure was 1 A450 class.

A further experiment has as its target T14, GST-ZO-3 PDZ domain 1. As to the kind of experiment: G' assay.
For the molecule B1, the Classification was 2 A450 class.
Turning to B5, the Classification worked out at 1 A450 class.
Consider B11, for which the Classification came out at 2 A450 class.

The next experiment has as its target T15, GST-novel PDZ gene PDZ domain 1 (Homo …). As to the kind of experiment: G' assay.
In the case of B3, the Classification was determined as 2 A450 class.
In turn, B5 showed a Classification of 2 A450 class.
Regarding B7, the Classification was found to be 1 A450 class.
